# Experimental data taken from patent US10894036B2, “Use of marizomib for the treatment of central nervous system (CNS) cancers” (Celgene International II Sàrl, priority 2016, dated 2021).
# Experiment: Phase 1/2 MRZ + BEV and MRZ monotherapy in recurrent G4 MG: adverse events, DLT
# Settings: for Ataxia: Treatment Related Grade ≥3 AE, # patients / Confusional State: Treatment Related Grade ≥3 AE, # patients / Delusion: Treatment Related Grade ≥3 AE, # patients / Dyspnea: Treatment Related Grade ≥3 AE, # patients / Embolism: Treatment Related Grade ≥3 AE, # patients / Fall: Treatment Related Grade ≥3 AE, # patients / Fatigue: Treatment Related Grade ≥3 AE, # patients / Hallucination: Treatment Related Grade ≥3 AE, # patients / Headache: Treatment Related Grade ≥3 AE, # patients / Hypertension: Treatment Related Grade ≥3 AE, # patients / Hyponatremia: Treatment Related Grade ≥3 AE, # patients / Insomnia: Treatment Related Grade ≥3 AE, # patients / Intracranial Hemorrhage: Treatment Related Grade ≥3 AE, # patients / Optic Nerve Disorder: Treatment Related Grade ≥3 AE, # patients / Proteinuria: Treatment Related Grade ≥3 AE, # patients: attributed to labelled agent
# [1] = MRZ 0.7 mg/m^2 + BEV, Cohort 2, N = 3
# [2] = MRZ 0.7 mg/m^2 Cohort 2 (N = 3)
# [3] = MRZ 0.8 mg/m^2 + BEV, Cohorts 3 & 4, N = 27
# [4] = MRZ 0.8 mg/m^2 + BEV, N = 27, related to the labelled drug
# [5] = MRZ 0.8 mg/m^2 Cohorts 3 & 4 (N = 27)
# Procedure: The clinical trial was a Phase 1, dose-escalation (3+3 design) followed by dose-expansion at recommended Phase 2 Dose (RP2D).
# The drugs were infused on 28-Day Cycles. Tumor response is assessed every other cycle by RANO criteria.
# The safety data will be presented in individual listings and summary tables, including frequency tables for adverse events and frequency and shift tables for laboratory variables. The safety population will be all subjects who received at least one dose of either study drug in Phase 1 or MRZ in Phase 2.
substance,measurement,setting,value
bevacizumab [reference compound],"Confusional State, Treatment Related Grade ≥3 AE, patients",[1],0
same,"Delusion, Treatment Related Grade ≥3 AE, patients",[1],0
same,"Dyspnea, Treatment Related Grade ≥3 AE, patients",[1],0
same,"Embolism, Treatment Related Grade ≥3 AE, patients",[1],0
same,"Fall, Treatment Related Grade ≥3 AE, patients",[1],0
same,"Fatigue, Treatment Related Grade ≥3 AE, patients",[1],0
same,"Hallucination, Treatment Related Grade ≥3 AE, patients",[1],0
same,"Headache, Treatment Related Grade ≥3 AE, patients",[1],0
same,"Hypertension, Treatment Related Grade ≥3 AE, patients",[1],1
same,"Hyponatremia, Treatment Related Grade ≥3 AE, patients",[1],0
same,"Insomnia, Treatment Related Grade ≥3 AE, patients",[1],0
same,"Intracranial Hemorrhage, Treatment Related Grade ≥3 AE, patients",[1],0
same,"Optic Nerve Disorder, Treatment Related Grade ≥3 AE, patients",[1],0
same,"Proteinuria, Treatment Related Grade ≥3 AE, patients",[1],1
same,"Ataxia, Treatment Related Grade ≥3 AE, patients","MRZ 0.7 mg/m^2 + BEV, Cohort 2, N = 3, related to the labelled drug",0
same,"Ataxia: Treatment Related Grade ≥3 AE, # patients",[2],0
same,"Confusional State: Treatment Related Grade ≥3 AE, # patients",[2],0
same,"Delusion: Treatment Related Grade ≥3 AE, # patients",[2],0
same,"Dyspnea: Treatment Related Grade ≥3 AE, # patients",[2],0
same,"Embolism: Treatment Related Grade ≥3 AE, # patients",[2],0
same,"Fall: Treatment Related Grade ≥3 AE, # patients",[2],0
same,"Fatigue: Treatment Related Grade ≥3 AE, # patients",[2],0
same,"Hallucination: Treatment Related Grade ≥3 AE, # patients",[2],0
same,"Headache: Treatment Related Grade ≥3 AE, # patients",[2],0
same,"Hypertension: Treatment Related Grade ≥3 AE, # patients",[2],1
same,"Hyponatremia: Treatment Related Grade ≥3 AE, # patients",[2],0
same,"Insomnia: Treatment Related Grade ≥3 AE, # patients",[2],0
same,"Intracranial Hemorrhage: Treatment Related Grade ≥3 AE, # patients",[2],0
same,"Optic Nerve Disorder: Treatment Related Grade ≥3 AE, # patients",[2],0
same,"Proteinuria: Treatment Related Grade ≥3 AE, # patients",[2],1
same,"Fatigue, treatment-related AE, patients","MRZ 0.8 mg/m^2 + BEV Cohorts 3 & 4, N = 27, related to the labelled drug (MRZ + BEV = related to both)",18 (66.7%)
same,"Confusional State, Treatment Related Grade ≥3 AE, patients",[3],0
same,"Delusion, Treatment Related Grade ≥3 AE, patients",[3],0
same,"Dyspnea, Treatment Related Grade ≥3 AE, patients",[3],1
same,"Embolism, Treatment Related Grade ≥3 AE, patients",[3],1
same,"Fall, Treatment Related Grade ≥3 AE, patients",[3],0
same,"Fatigue, Treatment Related Grade ≥3 AE, patients",[3],1
same,"Hallucination, Treatment Related Grade ≥3 AE, patients",[3],0
same,"Headache, Treatment Related Grade ≥3 AE, patients",[3],1
same,"Hypertension, Treatment Related Grade ≥3 AE, patients",[3],5
same,"Hyponatremia, Treatment Related Grade ≥3 AE, patients",[3],0
same,"Insomnia, Treatment Related Grade ≥3 AE, patients",[3],0
same,"Intracranial Hemorrhage, Treatment Related Grade ≥3 AE, patients",[3],1
same,"Optic Nerve Disorder, Treatment Related Grade ≥3 AE, patients",[3],1
same,"Proteinuria, Treatment Related Grade ≥3 AE, patients",[3],0
same,"Ataxia, Treatment Related Grade ≥3 AE, patients","MRZ 0.8 mg/m^2 + BEV, Cohorts 3 & 4, N = 27, related to the labelled drug",0
same,"Anaemia, treatment-related AE, patients",[4],0 (0.0%)
same,"Ataxia, treatment-related AE, patients",[4],0 (0.0%)
same,"Confusional state, treatment-related AE, patients",[4],1 (3.7%)
same,"Constipation, treatment-related AE, patients",[4],1 (3.7%)
same,"Diarrhoea, treatment-related AE, patients",[4],1 (3.7%)
same,"Dizziness, treatment-related AE, patients",[4],1 (3.7%)
same,"Dysphonia, treatment-related AE, patients",[4],10 (37.0%)
same,"Epistaxis, treatment-related AE, patients",[4],7 (25.9%)
same,"Fall, treatment-related AE, patients",[4],0 (0.0%)
same,"Hallucination, treatment-related AE, patients",[4],0 (0.0%)
same,"Headache, treatment-related AE, patients",[4],6 (22.2%)
same,"Infusion site pain, treatment-related AE, patients",[4],1 (3.7%)
same,"Muscular weakness, treatment-related AE, patients",[4],1 (3.7%)
same,"Platelet count decreased, treatment-related AE, patients",[4],3 (11.1%)
same,"Upper-airway cough syndrome, treatment-related AE, patients",[4],5 (18.5%)
same,"Ataxia: Treatment Related Grade ≥3 AE, # patients",[5],0
same,"Confusional State: Treatment Related Grade ≥3 AE, # patients",[5],0
same,"Delusion: Treatment Related Grade ≥3 AE, # patients",[5],0
same,"Dyspnea: Treatment Related Grade ≥3 AE, # patients",[5],1
same,"Embolism: Treatment Related Grade ≥3 AE, # patients",[5],1
same,"Fall: Treatment Related Grade ≥3 AE, # patients",[5],0
same,"Fatigue: Treatment Related Grade ≥3 AE, # patients",[5],1
same,"Hallucination: Treatment Related Grade ≥3 AE, # patients",[5],0
same,"Headache: Treatment Related Grade ≥3 AE, # patients",[5],1
same,"Hypertension: Treatment Related Grade ≥3 AE, # patients",[5],5
same,"Hyponatremia: Treatment Related Grade ≥3 AE, # patients",[5],0
same,"Insomnia: Treatment Related Grade ≥3 AE, # patients",[5],0
same,"Intracranial Hemorrhage: Treatment Related Grade ≥3 AE, # patients",[5],1
same,"Optic Nerve Disorder: Treatment Related Grade ≥3 AE, # patients",[5],1
same,"Proteinuria: Treatment Related Grade ≥3 AE, # patients",[5],0
same,"Anaemia: # pts, related to BEV","MRZ+BEV, 12 Sep. 2016",0
same,"Anxiety: # pts, related to BEV","MRZ+BEV, 12 Sep. 2016",0
same,"Aphasia: # pts, related to BEV","MRZ+BEV, 12 Sep. 2016",0
same,"Appendicitis Perforated: # pts, related to BEV","MRZ+BEV, 12 Sep. 2016",0
same,"Asthenia: # pts, related to BEV","MRZ+BEV, 12 Sep. 2016",0
same,"Ataxia: # pts, related to BEV","MRZ+BEV, 12 Sep. 2016",0
same,"Confusional State: # pts, related to BEV","MRZ+BEV, 12 Sep. 2016",0
same,"Constipation: # pts, related to BEV","MRZ+BEV, 12 Sep. 2016",0
same,"Convulsion: # pts, related to BEV","MRZ+BEV, 12 Sep. 2016",0
same,"Delusion: # pts, related to BEV","MRZ+BEV, 12 Sep. 2016",0
same,"Depressed Level of Consciousness: # pts, related to BEV","MRZ+BEV, 12 Sep. 2016",0
same,"Diarrhoea: # pts, related to BEV","MRZ+BEV, 12 Sep. 2016",0
same,"Dizziness: # pts, related to BEV","MRZ+BEV, 12 Sep. 2016",0
same,"Dysarthria: # pts, related to BEV","MRZ+BEV, 12 Sep. 2016",0
same,"Dysphagia: # pts, related to BEV","MRZ+BEV, 12 Sep. 2016",0
same,"Dysphonia: # pts, related to BEV","MRZ+BEV, 12 Sep. 2016",10
same,"Dyspnoea: # pts, related to BEV","MRZ+BEV, 12 Sep. 2016",0
